Data reported in patent publication US20180009877A1 (ACADEMIA SINICA, published 2018).

B1: M32 (antibody)
chain: MAELGIELTQSQKFMSTSVGDRVSITCKASQNVGTAVAWYQQKPGQSPKLLIYSASNRYTGVPDRFTGSGSGTDFTLTISNMQSEDLADYFCQQYSSYPLAFGGGTKLEIKSSGGGGSGGGGGGSSRSSLEVQLVESGAELVRPGALVKLSCKASGFNIKDYFMYWVKQRPEQGLEWVGWIDPENGNTIYDPKFQGKASITADTSSNTAYLQLSSLTSEDTAVYYCTRGYYGSRVLAMDYWGQGTSVTVSSAKTTPPSVTSAAA
notes: also called antibody M32
B2: M41 (antibody)
chain: MAELDIQMTQTTSSLSASLGDRVTISCRTSQDISNYLNWYQQKPNGTIKLLIYYTSGLYSGVPSRFSGSGSGADYSLTISNVEQEDIATYFCQQVNTLPYTFGGGTKLELKSSGGGGSGGGGGGSSRSSFEVQLQQSGAELVKPGASVKMSCKAFGYTFTTYPIEWMKQNHGKSLEWIGNFHPYNDYTNYNEKFKGKAKLTVEKSSTTVYLELSRLTSDDSAVYYCARRHDGYYGAMDYWGQGTSVTVSSAKTTAPSVTSAAAGAPVPYPDPLEPRAA
notes: also called antibody M41
B3: M61 (antibody)
chain: MAELDIKITQSPASLSASVGETVTITCRASENIYSYLAWYQQKQGKSPQLLVYNAKTLAEGVPSRFSGSGSGTQFSLKINSLQPEDFGSYYCQHHYGTPYTFGGGTKLELKSSGGGGSGGGGGGSSRSSLEVQLQQSGAELVKPGASVKMSCKAFGYTFTTYPIEWMKQNHGKSLEWIGNFHPYNDDTKYNEKFKGKAKLTVEKSSSTVYLELSRLTSDDSAVYYCARRNDGYYGAMDYWGQGTSVTVSSAKTTAPSVTSAAAGAPVPYPDPLEPRAA
B4: M62 (antibody)
chain: MAELDIQMIQSQKFMSTSVGDRVSVTCKASQNVGTNVAWYQQKPGQSPKALIHSASYRYSGVPDRFTGSGSGTDFTLTISNVQSEDLAEYFCQQYNSYPLTFGAGTKLEIKSSGGGGSGGGGGGSSRSSLEVQLQQSGTELARPGASVKLSCKASGYTFIDYYITWVKQRTGQGLEWIGEIYPGGGNPYYNDNFKGKASLTADKSSNTVYMQLSSLTSEDSAVYFCARSYKYDVSVYWGQGTLVTVSAAKTTPPSVTSAAAGAPVPYPDPLEPRAA
notes: also called antibody M62
B5: M63 (antibody)
chain: MAELDAVVTQESALTTSPGETVTLTCRSSTGTVTTSNYANWVQEKPDHLFTGLIGGTKNRAPGVPARFSGSLIGDKAALTITGAQTEDEAIYFCALWYSNHWVFGGGTKLTVLGSSGGGGSGGGGGGSSRSSLEVQLQQSGPELVRPGDSVKISCKASGYTFSDYAVHWVKRSHGKSLEWIGVISIYYDNINYNQNFKGKATMTVDKSSSTAYLELARLTSEDSAIYYCARRGFDYWGPGTTLTVSSAKTTAPSVTSAAA
B6: M64 (antibody)
chain: MAELDIQMNQSHKFMSTSVGDRVSITCKASQDVSTAVAWYQQKPGQSPKLLIYWASTRHTGVPGRFTGSGSGADYTLTISSVQAEDLALYYCQQHYSTPYTFGGGTKLEIKSSGGGGSGGGGGGSSRSSLEVQLQQSGAELVKPGASVKLSCTASGFNIKNTYMHWVKQRPEQGLEWIGRIDPANGNTKYDPKLQGKATITADTSSNTAYLHLSSLTSEDTAVYYCVPYYRGAMDYWGQGTSVTVSSESQSFPNVTSAAAGAPVPYPDPLEPRAA
B7: H32 (antibody)
chain: DIQMTQSPSSLSASVGDRVTITCKASQNVGTAVAWYQQKPGKAPKLLIYSASNRYTGVPSRFSGSGSGTDFTLTISSLQPEDFATYYCQQYSSYPLAFGQGTKVEIKRGGGGSIEGRSGGGGSEVQLVESGGGLVQPGGSLRLSCKASGFNIKDYFMYWVRQAPGKGLEWVGWIDPENGNTIYDPKFQGRFTISADTSKNTAYLQMNSLRAEDTAVYYCTRGYYGSRVLAMDYWGQGTLVTVSSASAAA
notes: also called antibody H32

Tests used:
polypeptide HER2/ECD [1] = target: T1, polypeptide HER2/ECD (human, UniProt P04626 23-646); experiment: SPR (BIAcore), HER2/ECD immobilized, IgG in flow
Procedure: BIAcore T200 (GE Healthcare) instrument was used to determine the binding affinities and kinetic parameters for interactions between antibody and antigen HER2/ECD. HER2/ECD in 10 mM acetate buffer (pH 5.0) was immobilized on a CM5 sensor chip to a response unit (RU) of 1000 with an amine coupling kit. Association (kₒₙ) and dissociation (koff) constants of the interactions between IgGs and HER2/ECD were measured in PBST running buffer (0.05% Tween 20) with a flow rate of 30 μL/min. […] Binding kinetics was determined by global fitting to 1:1 binding model using the Biaevaluation software (GE Healthcare).

polypeptide HER2/ECD [2] = target: T1, polypeptide HER2/ECD; experiment: ELISA, IgG on immobilized HER2/ECD
Procedure: The EC₅₀ of antibody was determined by titrating the antibody on immobilized HER2/ECD with ELISA. Briefly, NUNC 96-well Maxisorb immunoplates were coated with HER2/ECD peptides (0.2 μg per well) in PBS buffer (pH 7.4) via overnight incubation at 4° C., the plates were then blocked with 5% skim milk in PBST [0.05% (v/v) Tween 20] for 1 h. In the meantime, twofold serial dilutions of the antibody in PBST with 5% milk were performed and 11 different concentrations of the antibody were generated. After blocking, 100 μL diluted antibody samples were added to each well, and incubated for 1 h under gentle shaking. The plate was washed 6 times with 300 μL PBST and then added with 100 μL 1:2000-diluted horse-radish peroxidase/anti-human IgG antibody conjugate in PBST with 5% milk for 1 h incubation. The plates were washed 6 times with PBST buffer and twice with PBS, developed for 3 min with 3,3′,5,5′-tetramethyl-benzidine peroxidase substrate (Kirkegaard & Perry Laboratories), quenched with 1.0 M HCl and read spectrophotometrically at 450 nm.

| Binder | Kd (polypeptide HER2/ECD [1]) [nM] | koff (polypeptide HER2/ECD [1]) [s⁻¹] | kon (polypeptide HER2/ECD [1]) [M⁻¹ s⁻¹] | EC50 (polypeptide HER2/ECD [2]) [ng/mL] |
| --- | --- | --- | --- | --- |
| B1 | 0.243 | 7.15e-05 | 294000 | 3.1 |
| B2 | 0.0519 | 3.48e-05 | 671000 | 3.4 |
| B3 | 0.591 | 0.0024 | 4.06e+06 | 3.5 |
| B4 | 0.0228 | 1.8e-05 | 788000 | 2 |
| B5 | – | 7.34e-05 | – | 2.4 |
| B6 | 0.195 | 0.000337 | 1.74e+06 | 3.1 |
| B7 | 0.242 | 3.85e-05 | 159000 | 3.2 |
